T1: full-length iNOS protein (endogenous, from LPS/IFNγ-treated mouse bone marrow-derived macrophages) (mouse, UniProt P29477 1-1144)
T1 construct: Not purified: present in macrophage lysates; Detected by Western blot with anti-iNOS antibody; also called NOS2; inducible nitric oxide synthase
T1 sequence: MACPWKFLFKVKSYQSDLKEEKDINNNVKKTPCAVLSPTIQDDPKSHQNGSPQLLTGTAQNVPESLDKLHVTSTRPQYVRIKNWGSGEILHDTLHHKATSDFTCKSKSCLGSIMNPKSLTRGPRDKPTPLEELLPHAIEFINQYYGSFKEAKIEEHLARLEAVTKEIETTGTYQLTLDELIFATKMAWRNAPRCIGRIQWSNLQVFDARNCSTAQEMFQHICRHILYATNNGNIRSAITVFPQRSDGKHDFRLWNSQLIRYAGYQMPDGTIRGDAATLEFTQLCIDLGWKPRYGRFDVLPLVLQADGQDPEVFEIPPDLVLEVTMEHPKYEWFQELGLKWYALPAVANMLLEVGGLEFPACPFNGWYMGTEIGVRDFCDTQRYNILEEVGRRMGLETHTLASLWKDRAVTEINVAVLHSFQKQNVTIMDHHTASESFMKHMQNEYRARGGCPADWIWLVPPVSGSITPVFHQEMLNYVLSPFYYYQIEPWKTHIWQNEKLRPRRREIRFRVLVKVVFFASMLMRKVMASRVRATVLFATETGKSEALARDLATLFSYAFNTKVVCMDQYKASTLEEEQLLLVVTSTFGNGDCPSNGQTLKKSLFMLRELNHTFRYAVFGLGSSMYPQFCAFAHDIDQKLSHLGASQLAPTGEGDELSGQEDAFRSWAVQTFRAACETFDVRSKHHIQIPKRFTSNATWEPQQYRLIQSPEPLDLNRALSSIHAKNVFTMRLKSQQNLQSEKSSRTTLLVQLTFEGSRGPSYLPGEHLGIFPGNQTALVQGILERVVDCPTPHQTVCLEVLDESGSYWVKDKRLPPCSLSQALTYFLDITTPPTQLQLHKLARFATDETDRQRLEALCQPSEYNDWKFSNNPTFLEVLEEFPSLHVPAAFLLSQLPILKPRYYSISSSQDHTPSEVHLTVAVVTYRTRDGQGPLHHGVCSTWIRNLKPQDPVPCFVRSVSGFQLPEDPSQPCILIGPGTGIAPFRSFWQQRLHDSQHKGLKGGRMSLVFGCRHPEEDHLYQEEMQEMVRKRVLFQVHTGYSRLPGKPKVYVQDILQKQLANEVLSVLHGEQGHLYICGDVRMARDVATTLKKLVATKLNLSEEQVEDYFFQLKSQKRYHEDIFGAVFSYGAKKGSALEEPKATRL

T2: SSB-2ΔSB (recombinant murine SSB-2 SPRY domain, residues 12-224) (mouse, UniProt O88838 12-224)
T2 construct: 226 residues in total; expressed as GST fusion in E. coli, GST cleaved off with thrombin; 15N-labelled for NMR; coupled to NHS-Sepharose for pull-downs; also called SPSB2
T2 sequence: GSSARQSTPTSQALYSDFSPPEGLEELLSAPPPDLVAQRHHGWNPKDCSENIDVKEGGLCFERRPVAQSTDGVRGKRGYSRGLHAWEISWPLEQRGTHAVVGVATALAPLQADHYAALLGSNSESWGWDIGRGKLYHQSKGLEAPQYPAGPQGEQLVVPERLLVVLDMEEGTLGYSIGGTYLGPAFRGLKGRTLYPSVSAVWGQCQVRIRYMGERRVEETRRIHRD

B1: Flag-tagged SSB-2ΔSB transgene product (a.a. 2-224, without the SOCS box), in BMDM of Ssb-2ΔSB T/+ mice (other)
chain: DYKDDDDKGQTALARGSSSTPTSQALYSDFSPPEGLEELLSAPPPDLVAQRHHGWNPKDCSENIDVKEGGLCFERRPVAQSTDGVRGKRGYSRGLHAWEISWPLEQRGTHAVVGVATALAPLQADHYAALLGSNSESWGWDIGRGKLYHQSKGLEAPQYPAGPQGEQLVVPERLLVVLDMEEGTLGYSIGGTYLGPAFRGLKGRTLYPSVSAVWGQCQVRIRYMGERRVEE
notes: also called SOCS box-deleted SSB-2
B2: Flag-tagged SSB-2 transgene product (a.a. 3-265), in BMDM of Ssb-2 T/+ mice (other)
chain: DYKDDDDKQTALARGSSSTPTSQALYSDFSPPEGLEELLSAPPPDLVAQRHHGWNPKDCSENIDVKEGGLCFERRPVAQSTDGVRGKRGYSRGLHAWEISWPLEQRGTHAVVGVATALAPLQADHYAALLGSNSESWGWDIGRGKLYHQSKGLEAPQYPAGPQGEQLVVPERLLVVLDMEEGTLGYSIGGTYLGPAFRGLKGRTLYPSVSAVWGQCQVRIRYMGERRVEEPQSLLHLSRLCVRHALGDTRLGQISTLPLPPAMKRYLLYK
notes: The printed end of the range may exceed the entry's length; also called full-length SSB-2
B3: Flag-tagged SSB-1ΔSB transgene product (a.a. 2-233, without the SOCS box), in BMDM of Ssb-1ΔSB T/+ mice (other)
chain: DYKDDDDKGQKVTGGIKTVDMRDPTYRPLKQELQGLDYCKPTRLDLLLDMPPVSYDVQLLHSWNNNDRSLNVFVKEDDKLIFHRHPVAQSTDAIRGKVGYTRGLHVWQITWAMRQRGTHAVVGVATADAPLHSVGYTTLVGNNHESWGWDLGRNRLYHDGKNQPSKTYPAFLEPDETFIVPDSFLVALDMDDGTLSFIVDGQYMGVAFRGLKGKKLYPVVSAVWGHCEIRMRYLNGLDPE
notes: also called SOCS box-deleted SSB-1
B4: Flag-tagged SSB-2 mutant R100/G101 to alanine (other)
chain: DYKDDDDKMGQTALARGSSSTPTSQALYSDFSPPEGLEELLSAPPPDLVAQRHHGWNPKDCSENIDVKEGGLCFERRPVAQSTDGVRGKRGYSRGLHAWEISWPLEQAATHAVVGVATALAPLQADHYAALLGSNSESWGWDIGRGKLYHQSKGLEAPQYPAGPQGEQLVVPERLLVVLDMEEGTLGYSIGGTYLGPAFRGLKGRTLYPSVSAVWGQCQVRIRYMGERRVEEPQSLLHLSRLCVRHALGDTRLGQISTLPLPPAMKRYLLYK
B5: Flag-tagged SSB-2 mutant Y120 to alanine (other)
chain: DYKDDDDKMGQTALARGSSSTPTSQALYSDFSPPEGLEELLSAPPPDLVAQRHHGWNPKDCSENIDVKEGGLCFERRPVAQSTDGVRGKRGYSRGLHAWEISWPLEQRGTHAVVGVATALAPLQADHAAALLGSNSESWGWDIGRGKLYHQSKGLEAPQYPAGPQGEQLVVPERLLVVLDMEEGTLGYSIGGTYLGPAFRGLKGRTLYPSVSAVWGQCQVRIRYMGERRVEEPQSLLHLSRLCVRHALGDTRLGQISTLPLPPAMKRYLLYK
B6: Flag-tagged SSB-2 mutant V206 to alanine (other)
chain: DYKDDDDKMGQTALARGSSSTPTSQALYSDFSPPEGLEELLSAPPPDLVAQRHHGWNPKDCSENIDVKEGGLCFERRPVAQSTDGVRGKRGYSRGLHAWEISWPLEQRGTHAVVGVATALAPLQADHYAALLGSNSESWGWDIGRGKLYHQSKGLEAPQYPAGPQGEQLVVPERLLVVLDMEEGTLGYSIGGTYLGPAFRGLKGRTLYPSVSAAWGQCQVRIRYMGERRVEEPQSLLHLSRLCVRHALGDTRLGQISTLPLPPAMKRYLLYK
B7: Flag-tagged SSB-2 mutant Y120 to phenylalanine (other)
chain: DYKDDDDKMGQTALARGSSSTPTSQALYSDFSPPEGLEELLSAPPPDLVAQRHHGWNPKDCSENIDVKEGGLCFERRPVAQSTDGVRGKRGYSRGLHAWEISWPLEQRGTHAVVGVATALAPLQADHFAALLGSNSESWGWDIGRGKLYHQSKGLEAPQYPAGPQGEQLVVPERLLVVLDMEEGTLGYSIGGTYLGPAFRGLKGRTLYPSVSAVWGQCQVRIRYMGERRVEEPQSLLHLSRLCVRHALGDTRLGQISTLPLPPAMKRYLLYK
B8: iNOS N-terminal peptide XII, Ac-KEEKDINNNAKKT-NH2 (peptide)
peptide: Ac-KEEKDINNNAKKT-NH2
B9: iNOS N-terminal peptide XV, Ac-KEEADINNNAKAT-NH2 (peptide)
peptide: Ac-KEEADINNNAKAT-NH2
B10: iNOS N-terminal peptide XIII, Ac-KEEKDINNNVKAT-NH2 (peptide)
peptide: Ac-KEEKDINNNVKAT-NH2
B11: Flag-tagged SSB-1 transgene product (a.a. 2-274), in BMDM of Ssb-1 T/+ mice (other)
chain: DYKDDDDKGQKVTGGIKTVDMRDPTYRPLKQELQGLDYCKPTRLDLLLDMPPVSYDVQLLHSWNNNDRSLNVFVKEDDKLIFHRHPVAQSTDAIRGKVGYTRGLHVWQITWAMRQRGTHAVVGVATADAPLHSVGYTTLVGNNHESWGWDLGRNRLYHDGKNQPSKTYPAFLEPDETFIVPDSFLVALDMDDGTLSFIVDGQYMGVAFRGLKGKKLYPVVSAVWGHCEIRMRYLNGLDPEPLPLMDLCRRSVRLALGKERLGAIPALPLPASLKAYLLYQ
notes: The printed end of the range may exceed the entry's length; also called full-length SSB-1

Assays:
[1] = biological target: T1, full-length iNOS protein (endogenous, …); test: anti-Flag immunoprecipitation from transgenic BMDM, anti-iNOS re-blot
Protocol: Cells were incubated with IFNγ and LPS as described, and lysed in KALB lysis buffer (Nicholson et al., 1995) containing protease inhibitors (Complete Cocktail tablets, Roche), 1 mM phenylmethylsulphonyl fluoride, 1 mM Na₃VO₄ and 1 mM NaF. Proteins were immunoprecipitated using anti-Flag antibody conjugated to Sepharose (M2; EASTMAN KODAK). Proteins were separated by sodium dodecyl sulphatepolyacrylamide gel electrophoresis (SDS-PAGE) under reducing conditions and electrophoretically transferred to Biotrace PVDF membranes (Pall Corp. Ann Arbor, Mich.). Membranes were blocked overnight in 10% w/v skim milk and incubated with primary antibody for 2 h. Antibody binding was visualized with either peroxidase-conjugated goat anti-rat immunoglobulin (Southern Biotech) or peroxidase-conjugated sheep anti-rabbit immunoglobulin (Chemicon, Melbourne, Australia), and the enhanced chemiluminescence (ECL) system (Amersham, Little Chalfont, Buckinghamshire, UK). To re-blot, the membrane was first stripped of antibodies in 0.1 M glycine, pH 2.9.
As genetic deletion of SSB-2 appeared to result in elevation of iNOS levels, it was tested whether artificially increasing SSB levels could correspondingly down-regulate iNOS expression. BMDM were generated from mice expressing either a Flag-tagged Ssb-1 or Ssb-2 transgene under a constitutive promoter (Ssb-1^{T/+}, Ssb-2^{T/+}) and from wild-type littermate control mice. […] Macrophage expression of the SSB transgenes was confirmed by anti-FLAG immunoprecipitation and Western blot (FIGS. 9C and 10C, top panels).

[2] = biological target: T1, full-length iNOS protein (endogenous, …); test: anti-Flag co-immunoprecipitation, anti-iNOS Western blot
Text: FIG. 6. Interaction between iNOS and SSB-1, -2, and -4 and SSB-2 residues affecting 10 iNOS binding. (A) iNOS interacts preferentially with SSB-2 and SSB-4. 293T cells were transiently transfected with vector alone or cDNA encoding either Flag-tagged SSB-1, SSB-2, SSB-3 or SSB-4. Cells were lysed, and mixed with BMDM lysates from cells induced to express iNOS. Flag-tagged proteins were immunoprecipitated using anti-Flag antibodies (M2-beads) and separated by SDSPAGE. Co-immunoprecipitation of iNOS was detected by Western blot with anti-iNOS antibodies (upper panel). Membranes were stripped and reprobed with rat anti-Flag antibodies (middle panel). Comparative expression of Flag-tagged proteins in 293T lysates is shown by Western blot (lower panel). (B) SSB-2 residues affecting iNOS binding. Residues in the SSB-2 SPRY domain were mutated to Ala or Phe (for Y120) based on SSB-2 structure and sequence conservation. 293T cells 20 were transiently transfected with cDNA encoding Flag-tagged wild-type or mutant SSB-2. Cells were lysed, and mixed with BMDM lysates from cells induced to express iNOS. Flag-tagged proteins were immunoprecipitated using anti-Flag antibodies and separated by SDS-PAGE. Coimmunoprecipitation of iNOS was detected by Western blot with anti-iNOS antibodies.

[3] = biological target: T2, SSB-2ΔSB (recombinant murine SSB-2 SPRY …); test: ITC, 25 C, peptide injected into SSB-2ΔSB
Protocol: FIG. 3. Typical ITC raw data and titration curves for SSB-2 and iNOS peptide interactions. Titration curves were fitted using the “One Set of Sites” model in MicroCal Origin.
(§1) Wild-type and mutant iNOS peptides (Table 2), corresponding to Lys19-Thr31 of mouse iNOS, were synthesized by GL Biochem (Shanghai) Ltd. These peptides were N-terminal acetylated and C-terminal amidated. All ITC measurements were carried out at 25° C. using a Microcal omega VP-ITC (Microcal Inc., Northampton, Mass.). SSB-2ΔSB was dialysed against buffer (100 mM TrisHCl, 150 mM NaCl, pH 8.0), and wild-type and mutant iNOS N-terminal peptides were prepared in the same buffer from 5 mM stocks. Solutions of 5 to 10 μM SSB-2ΔSB in the cell were titrated by injection of a total of 290 μL of 50-200 μM of iNOS peptides. Data analysis was performed using the evaluation software, MicroCal Origin version 5.0. All curves were fitted using the nonlinear least-squares fitter and the “One Set of Sites” model.

[4] = biological target: T2, SSB-2ΔSB (recombinant murine SSB-2 SPRY …); test: ITC
Protocol: as §1
Mutation of Glu21 had no effect on SSB-2:iNOS peptide binding. […] Binding of an SSB-2-SPRY domain in which tyrosine 120 had. been mutated to alanine (Y120A-SSB-2ΔSB) was assessed by ITC.

Binder | binding result [1] | binding result [2] | other results
B1 | binds |  | 
B2 | binds |  | 
B3 | binds |  | 
B4 |  | no binding | 
B5 |  | no binding | 
B6 |  | no binding | 
B7 |  | no binding | 
B8 |  |  | Kd [3]: 56.8 nM; fold lower binding affinity than the wild-type peptide [4]: 2 to 4 fold
B9 |  |  | Kd [3]: 311 nM; fold decrease of binding affinity against the wild-type peptide [4]: ~24 fold
B10 |  |  | Kd [3]: 29.8 nM; fold lower binding affinity than the wild-type peptide [4]: 2 fold
B11 | binds |  | 
